Measured values from PMC9352551, “Energetic determinants of animal cell polarity regulator Par-3 interaction with the Par complex” (The Journal of Biological Chemistry, 2022).

T1: aPKC KD-PBM (Drosophila, UniProt A1Z9X0 259-606)
T1 construct: From pBH; also called his aPKC kinase domain-PBM; aPKC kinase domain–PBM; source: E. coli BL21 (DE3), his-purified (Ni-NTA) partially under denaturing conditions (8 M urea)
T1 sequence (looked up): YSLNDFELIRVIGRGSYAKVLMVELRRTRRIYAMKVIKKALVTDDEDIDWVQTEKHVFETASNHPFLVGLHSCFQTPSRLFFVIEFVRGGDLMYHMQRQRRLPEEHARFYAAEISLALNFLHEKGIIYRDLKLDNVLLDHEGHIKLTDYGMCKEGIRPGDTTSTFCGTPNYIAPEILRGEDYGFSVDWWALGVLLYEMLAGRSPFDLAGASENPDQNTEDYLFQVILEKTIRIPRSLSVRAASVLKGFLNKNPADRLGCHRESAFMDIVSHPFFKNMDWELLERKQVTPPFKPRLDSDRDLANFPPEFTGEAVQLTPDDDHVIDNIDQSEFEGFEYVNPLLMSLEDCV

T2: Par complex (his-Par-6, aPKC) (Drosophila, UniProt O97111 1-351; A1Z9X0 1-606)
T2 construct: Par-6, Drosophila, residues 1-351; atypical protein kinase C (aPKC), Drosophila, residues 1-606; Construct as in PMID 32084408; also called full Par complex; source: HEK 293F, transfected (pCMV), purified (Ni-NTA or cobalt resin, Source Q anion exchange)
T2 sequence (looked up) 1: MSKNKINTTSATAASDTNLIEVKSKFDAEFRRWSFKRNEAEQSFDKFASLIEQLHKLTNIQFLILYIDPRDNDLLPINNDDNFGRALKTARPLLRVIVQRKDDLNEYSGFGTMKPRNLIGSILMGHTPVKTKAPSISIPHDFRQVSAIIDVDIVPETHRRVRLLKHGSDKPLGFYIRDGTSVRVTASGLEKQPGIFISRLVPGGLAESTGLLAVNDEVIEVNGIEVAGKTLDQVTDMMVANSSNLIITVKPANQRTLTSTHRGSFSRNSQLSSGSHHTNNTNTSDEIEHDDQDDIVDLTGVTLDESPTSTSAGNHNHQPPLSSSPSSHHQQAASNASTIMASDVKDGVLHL
T2 sequence (looked up) 2: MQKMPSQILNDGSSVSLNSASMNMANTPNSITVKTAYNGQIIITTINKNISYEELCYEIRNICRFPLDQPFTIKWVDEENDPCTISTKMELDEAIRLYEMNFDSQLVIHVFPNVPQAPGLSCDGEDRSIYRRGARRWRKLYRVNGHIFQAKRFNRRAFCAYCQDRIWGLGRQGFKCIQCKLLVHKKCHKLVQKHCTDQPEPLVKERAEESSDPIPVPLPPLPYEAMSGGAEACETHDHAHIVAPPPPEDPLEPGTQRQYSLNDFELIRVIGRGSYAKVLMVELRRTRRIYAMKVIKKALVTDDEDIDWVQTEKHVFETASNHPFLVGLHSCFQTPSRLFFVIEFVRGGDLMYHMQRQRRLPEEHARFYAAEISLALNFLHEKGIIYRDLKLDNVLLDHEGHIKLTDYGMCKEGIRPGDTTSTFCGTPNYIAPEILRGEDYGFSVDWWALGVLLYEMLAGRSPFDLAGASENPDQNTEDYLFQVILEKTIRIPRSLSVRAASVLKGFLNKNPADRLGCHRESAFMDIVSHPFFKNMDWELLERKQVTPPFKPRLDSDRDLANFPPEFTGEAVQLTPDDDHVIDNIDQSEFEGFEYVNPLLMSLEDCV

B1: Par-3 PDZ3 (his-purified, soluble) (domain or fragment, Drosophila, UniProt O96782 616-741, looked up)
chain: HSREELTLHIPVHDTEKAGLGVSVKGKTCSNLNASGSSASSGSNGLMKHDGDLGIFVKNVIHGGAASRDGRLRMNDQLLSVNGVSLRGQNNAEAMETLRRAMVNTPGKHPGTITLLVGRKILRSAS
notes: Par-3 (Bazooka), Drosophila, residues 616-741; From pET19; source: E. coli BL21 (DE3), his-purified
B2: Par-3 PDZ2 (his-purified, soluble) (domain or fragment, Drosophila, UniProt O96782 444-533, looked up)
chain: QIMLKKGPNGLGFSVTTRDNPAGAHCPIYIKNILPRGAAIEDGRLKPGDRLLEVDGTPMTGKTQTDVVAILRGMPAGATVRIVVSRQQEL
notes: Par-3 (Bazooka), Drosophila, residues 444-533; From pET19; also called soluble PDZ2; source: E. coli BL21 (DE3), his-purified
B3: MBP-Par-3 PDZ1-APMΔPDZ2 (domain or fragment, Drosophila, UniProt O96782 309-987, looked up)
chain: DGEMLLIINEYGSPLGLTALPDKEHGGGLLVQHVEPGSRAERGQLRRDDRILEINGIKLIGLTESQVQEQLRRALESSELRVRVLRGDRNRRQQRDSKVADMVEVATVSPTRKPHAAPVGTSLQVANTAEQADQPAEKSAGVAVAPSVAPPAVPAAAAPAPPIPVQKSSSARSLFTHQQQSQLNESQHFIDAGSESAASNDSLPPSSNSWHSREELTLHIPVHDTEKAGLGVSVKGKTCSNLNASGSSASSGSNGLMKHDGDLGIFVKNVIHGGAASRDGRLRMNDQLLSVNGVSLRGQNNAEAMETLRRAMVNTPGKHPGTITLLVGRKILRSASSSDILDHSNSHSHSHSNSSGGSNSNGSGNNNNSSSNASDNSGATVIYLSPEKREQRCNGGGGGGSAGNEMNRWSNPVLDRLTGGICSSNSAQPSSQQSHQQQPHPSQQQQQQRRLPAAPVCSSAALRNESYYMATNDNWSPAQMHLMTAHGNTALLIEDDAEPMSPTLPARPHDGQHCNTSSANPSQNLAVGNQGPPINTVPGTPSTSSNFDATYSSQLSLETNSGVEHFSRDALGRRSISEKHHA
notes: Par-3 (Bazooka), Drosophila, residues 309-987 with residues 437-533 deleted; From pMAL; construct as in PMID 32084408; not shown: MBP, N-terminal, kept; His tag, C-terminal, kept
B4: GST-Par-3 PDZ3 (domain or fragment, Drosophila, UniProt O96782 616-741, looked up)
chain: B1 chain
notes: Par-3 (Bazooka), Drosophila, residues 616-741; From pGEX; also called GST fused Par-3 PDZ3
B5: GST-Par-3 PDZ2-3 (domain or fragment, Drosophila, UniProt O96782 444-741, looked up)
chain: QIMLKKGPNGLGFSVTTRDNPAGAHCPIYIKNILPRGAAIEDGRLKPGDRLLEVDGTPMTGKTQTDVVAILRGMPAGATVRIVVSRQQELAEQADQPAEKSAGVAVAPSVAPPAVPAAAAPAPPIPVQKSSSARSLFTHQQQSQLNESQHFIDAGSESAASNDSLPPSSNSWHSREELTLHIPVHDTEKAGLGVSVKGKTCSNLNASGSSASSGSNGLMKHDGDLGIFVKNVIHGGAASRDGRLRMNDQLLSVNGVSLRGQNNAEAMETLRRAMVNTPGKHPGTITLLVGRKILRSAS
notes: Par-3 (Bazooka), Drosophila, residues 444-741; From pGEX
B6: GST-Par-3 BR-PDZ2-3 (domain or fragment, Drosophila, UniProt O96782 426-741, looked up)
chain: PVGTSLQVANTRKLGRKIQIMLKKGPNGLGFSVTTRDNPAGAHCPIYIKNILPRGAAIEDGRLKPGDRLLEVDGTPMTGKTQTDVVAILRGMPAGATVRIVVSRQQELAEQADQPAEKSAGVAVAPSVAPPAVPAAAAPAPPIPVQKSSSARSLFTHQQQSQLNESQHFIDAGSESAASNDSLPPSSNSWHSREELTLHIPVHDTEKAGLGVSVKGKTCSNLNASGSSASSGSNGLMKHDGDLGIFVKNVIHGGAASRDGRLRMNDQLLSVNGVSLRGQNNAEAMETLRRAMVNTPGKHPGTITLLVGRKILRSAS
notes: Par-3 (Bazooka), Drosophila, residues 426-741; From pGEX
B7: GST-Par-3 BR-PDZ2 (domain or fragment, Drosophila, UniProt O96782 426-533, looked up)
chain: PVGTSLQVANTRKLGRKIQIMLKKGPNGLGFSVTTRDNPAGAHCPIYIKNILPRGAAIEDGRLKPGDRLLEVDGTPMTGKTQTDVVAILRGMPAGATVRIVVSRQQEL
notes: Par-3 (Bazooka), Drosophila, residues 426-533 (basic region and PDZ2); From pGEX
B8: GST-Par-3 PDZ1-3 (domain or fragment, Drosophila, UniProt O96782 309-741, looked up)
chain: DGEMLLIINEYGSPLGLTALPDKEHGGGLLVQHVEPGSRAERGQLRRDDRILEINGIKLIGLTESQVQEQLRRALESSELRVRVLRGDRNRRQQRDSKVADMVEVATVSPTRKPHAAPVGTSLQVANTRKLGRKIQIMLKKGPNGLGFSVTTRDNPAGAHCPIYIKNILPRGAAIEDGRLKPGDRLLEVDGTPMTGKTQTDVVAILRGMPAGATVRIVVSRQQELAEQADQPAEKSAGVAVAPSVAPPAVPAAAAPAPPIPVQKSSSARSLFTHQQQSQLNESQHFIDAGSESAASNDSLPPSSNSWHSREELTLHIPVHDTEKAGLGVSVKGKTCSNLNASGSSASSGSNGLMKHDGDLGIFVKNVIHGGAASRDGRLRMNDQLLSVNGVSLRGQNNAEAMETLRRAMVNTPGKHPGTITLLVGRKILRSAS
notes: Par-3 (Bazooka), Drosophila, residues 309-741; From pGEX; also called Par-3 fragment containing its three PDZ domains
B9: GST-Par-3 PDZ1-2 (domain or fragment, Drosophila, UniProt O96782 309-533, looked up)
chain: DGEMLLIINEYGSPLGLTALPDKEHGGGLLVQHVEPGSRAERGQLRRDDRILEINGIKLIGLTESQVQEQLRRALESSELRVRVLRGDRNRRQQRDSKVADMVEVATVSPTRKPHAAPVGTSLQVANTRKLGRKIQIMLKKGPNGLGFSVTTRDNPAGAHCPIYIKNILPRGAAIEDGRLKPGDRLLEVDGTPMTGKTQTDVVAILRGMPAGATVRIVVSRQQEL
notes: Par-3 (Bazooka), Drosophila, residues 309-533; From pGEX
B10: GST-Par-3 PDZ2 (domain or fragment, Drosophila, UniProt O96782 444-533, looked up)
chain: B2 chain
notes: Par-3 (Bazooka), Drosophila, residues 444-533; From pGEX; also called GST fused Par-3 PDZ2

These binders were tested against T1, aPKC KD-PBM (assay: pull-down; competition: GST-Par-3 PDZ2 or PDZ3 on glutathione resin with aPKC KD-PBM and the other PDZ domain as soluble competitor; room temperature, 30 to 60 min; 10 mM Hepes pH 7.5, 100 mM NaCl, 1 mM DTT, 200 μM ATP, 5 mM MgCl2, 0.1% Tween-20; Coomassie gel). Settings: both partners purified.
B1: binds. B2: binds.

Each binder was assayed against T2, Par complex (his-Par-6, aPKC) (assay: supernatant depletion assay; MBP-Par-3 (C-terminal his-tag, his-purified) on amylose resin (solid phase); soluble protein left in the supernatant quantified on a Coomassie gel; 10 min at 20 °C; 10 mM Hepes pH 7.5, 100 mM NaCl, 1 mM DTT, 200 μM ATP, 5 mM MgCl2, 0.1% Tween-20; 'apparent'). Settings: both partners purified.
B3: binds.

What follows are binders tested against T2, Par complex (his-Par-6, aPKC) (assay: supernatant depletion assay; GST-fused protein on glutathione agarose resin (solid phase, 'ligand'); soluble protein ('receptor') left in the supernatant at equilibrium quantified on a Coomassie gel; 1 h at 20 °C; 10 mM Hepes pH 7.5, 100 mM NaCl, 1 mM DTT, 200 μM ATP, 5 mM MgCl2, 0.1% Tween-20; single-site equation; 'apparent' for Par-3 variants that could bind more than one Par complex; ATP replaced with ADP in one …). Settings: both partners purified.
B4: binds. B5: binds. B6: binds. B7: binds. B8: binds. B9: binds. B10: binds.

These binders were tested against T1, aPKC KD-PBM in the same assay as above. Settings: both partners purified.
B4: binds. B5: binds. B6: binds. B7: binds. B9: binds. B10: binds.
